Laboratory results from patent US7271245B2, “Methods and compositions for inhibition of metastasis” (The Scripps Research Institute, priority 2004, dated 2007).

Assays:
Assay in all cases: Flow cytometry, binding to other RGD-recognizing integrins
integrin αvβ5 = molecular target: T1, integrin αvβ5 (Homo sapiens, UniProt P06756+P18084)
T1 construct: UCLA-P3 lung adenocarcinoma cells (αv integrins, but no αvβ3); endogenous in cells; host or cells: UCLA-P3 human lung adenocarcinoma cells
Procedure: (§1) Flow cytometry. scFv binding to human tumor cells was analyzed by flow cytometry, initially with cloned scFv phage and then with purified scFv protein. Per sample, 2×10^5 tumor cells were blocked with goat serum and incubated either with scFv phage (2-5×10^10) (1 h at RT) followed by mouse anti-M13 mAb (Serotec) (30 min on ice) and goat FITC-anti mouse (Pierce) (30 min on ice), or with purified scFv (1.25 to 40 μg/ml, routinely 10 to 15 μg/ml) (45 min on ice), followed by mouse anti-FLAG mAb M2 (Sigma) (30 min on ice) and goat FITC-anti mouse. Binding/washing buffer was TBS with or without divalent cations (1 mM Ca^2+, 1 mM Mg^2+, 0.2 mM Mn^2+). Alternatively, tumor cells were washed in 10 ml of plasma (prepared freshly from human blood anticoagulated with 50 nM D-Phe-D-Pro-D-arginyl chloromethyl ketone, PPACK, Felding-Habermann et al., J. Biol. Chem. 271: 5892-5900, 1996), resuspended in plasma and then incubated sequentially, without washing, with purified scFv (45 min on ice), followed by anti-FLAG M2 (30 min on ice) and FITC-anti mouse (30 min on ice). All samples were counter stained with propidium iodide (PI) and analyzed on a Becton-Dickinson FACScan, with live gate set to exclude PI positive cells.
(§2) To generate therapeutic reagents that specifically react with activated αvβ3, a phage display library of single chain antibody fragments (scFv) was exploited. This library was derived from cancer patient blood lymphocyte cDNA libraries and allowed us to test the hypothesis that the expressed immune repertoire contains antibodies that recognize integrin αvβ3, and distinguish between its activated and non-activated forms. Mao et al., Proc. Natl. Acad. Sci. U.S.A 96: 6953-6958, 1999. A subtractive panning approach was designed based on variants of MDA-MB 435 human breast cancer cells. […] Apparently, these cells are selected during metastasis, as variant cells isolated from lung and bone metastases in immune deficient mice express constitutively activated αvβ3. To establish a cell population that uniformly expresses non-activated αvβ3, MDA-MB 435 parental cells were cloned by limiting dilution, and clones tested for αvβ3 functionality. […] A cell line, MDA-MB 435 Lung-Lung, was established which expressed αvβ3 in a constitutively activated form. This variant stems from a lung metastase of an immune deficient mouse whose mammary fat pad had been injected with parental MDA-MB 435 cells. […] After 5 rounds of subtracting the phage library on Parent Combo cells and panning on Lung-Lung cells, scFv clones were analyzed by flow cytometry for their ability to bind integrin αvβ3 on human tumor cells, and to distinguish between the activated and non-activated forms of the receptor (FIG. 1). […]

αvβ1 = molecular target: T2, αvβ1 (Homo sapiens, UniProt P05556+P06756)
T2 construct: UCLA-P3 lung adenocarcinoma cells (αv integrins, but no αvβ3); endogenous in cells; host or cells: UCLA-P3 human lung adenocarcinoma cells
Procedure: as §1, §2

alpha IIb beta 3 = molecular target: T3, alpha IIb beta 3 (Homo sapiens, UniProt P05106+P08514)
T3 construct: M21-LIIb cells (αIIbβ3, no αv integrin); expressed in transfected cells; host or cells: M21-LIIb human melanoma cells
Procedure: as §1, §2

α5β1 = molecular target: T4, α5β1 (Homo sapiens, UniProt P05556+P08648)
T4 construct: endogenous in cells
Procedure: as §1, §2

T1 sequence (P06756 31-889 limits assumed): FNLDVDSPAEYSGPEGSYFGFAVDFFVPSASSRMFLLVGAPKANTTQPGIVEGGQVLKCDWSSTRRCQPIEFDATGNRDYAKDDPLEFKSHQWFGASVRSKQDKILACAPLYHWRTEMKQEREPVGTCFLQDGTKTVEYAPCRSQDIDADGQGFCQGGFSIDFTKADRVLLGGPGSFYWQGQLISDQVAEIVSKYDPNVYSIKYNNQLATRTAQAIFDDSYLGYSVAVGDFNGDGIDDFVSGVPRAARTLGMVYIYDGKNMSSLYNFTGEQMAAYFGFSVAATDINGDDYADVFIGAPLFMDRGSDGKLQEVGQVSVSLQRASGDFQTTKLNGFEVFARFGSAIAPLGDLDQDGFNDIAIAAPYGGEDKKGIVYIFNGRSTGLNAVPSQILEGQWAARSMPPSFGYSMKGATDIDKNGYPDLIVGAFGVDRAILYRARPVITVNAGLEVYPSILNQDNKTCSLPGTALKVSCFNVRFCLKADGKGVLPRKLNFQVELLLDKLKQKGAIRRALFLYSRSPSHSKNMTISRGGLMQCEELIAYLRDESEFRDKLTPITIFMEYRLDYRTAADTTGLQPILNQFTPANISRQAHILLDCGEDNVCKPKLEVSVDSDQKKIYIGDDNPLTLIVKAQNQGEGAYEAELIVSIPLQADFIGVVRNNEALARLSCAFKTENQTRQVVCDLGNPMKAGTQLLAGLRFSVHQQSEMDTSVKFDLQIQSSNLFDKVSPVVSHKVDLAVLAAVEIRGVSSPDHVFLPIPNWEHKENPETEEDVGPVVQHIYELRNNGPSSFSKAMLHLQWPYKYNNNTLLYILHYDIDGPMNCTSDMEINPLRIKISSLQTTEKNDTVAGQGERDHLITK
T1 sequence (P06756 891-1048 partner limits assumed): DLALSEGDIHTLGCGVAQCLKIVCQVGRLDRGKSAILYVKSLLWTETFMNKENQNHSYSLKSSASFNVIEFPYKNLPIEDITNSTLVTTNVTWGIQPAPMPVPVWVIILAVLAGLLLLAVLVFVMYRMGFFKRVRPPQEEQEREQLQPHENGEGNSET
T1 sequence (P18084 24-799): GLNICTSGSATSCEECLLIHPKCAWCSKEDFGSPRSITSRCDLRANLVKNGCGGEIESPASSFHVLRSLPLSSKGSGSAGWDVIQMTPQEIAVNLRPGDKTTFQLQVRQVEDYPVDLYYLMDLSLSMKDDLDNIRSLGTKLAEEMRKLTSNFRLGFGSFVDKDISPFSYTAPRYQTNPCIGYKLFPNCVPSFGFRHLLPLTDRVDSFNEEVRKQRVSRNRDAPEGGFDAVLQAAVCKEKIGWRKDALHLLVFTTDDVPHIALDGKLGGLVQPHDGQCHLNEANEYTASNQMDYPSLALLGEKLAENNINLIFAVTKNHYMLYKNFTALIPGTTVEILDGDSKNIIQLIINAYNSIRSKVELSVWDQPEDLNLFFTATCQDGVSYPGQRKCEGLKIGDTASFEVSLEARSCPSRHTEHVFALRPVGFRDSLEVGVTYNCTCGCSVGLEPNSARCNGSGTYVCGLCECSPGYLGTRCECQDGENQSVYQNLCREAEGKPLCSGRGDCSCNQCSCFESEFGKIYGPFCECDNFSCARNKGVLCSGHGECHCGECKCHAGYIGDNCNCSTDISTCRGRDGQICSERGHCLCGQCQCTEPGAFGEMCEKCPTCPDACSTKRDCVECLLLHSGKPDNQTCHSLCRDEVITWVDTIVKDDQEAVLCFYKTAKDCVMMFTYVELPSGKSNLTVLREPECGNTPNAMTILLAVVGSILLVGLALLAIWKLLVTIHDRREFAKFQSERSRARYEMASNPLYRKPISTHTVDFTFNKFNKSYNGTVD
T2 sequence (P06756 31-889 limits assumed): as the sequence (P06756 31-889 limits assumed) above
T2 sequence (P06756 891-1048 partner limits assumed): as the sequence (P06756 891-1048 partner limits assumed) above
T2 sequence (P05556 21-798): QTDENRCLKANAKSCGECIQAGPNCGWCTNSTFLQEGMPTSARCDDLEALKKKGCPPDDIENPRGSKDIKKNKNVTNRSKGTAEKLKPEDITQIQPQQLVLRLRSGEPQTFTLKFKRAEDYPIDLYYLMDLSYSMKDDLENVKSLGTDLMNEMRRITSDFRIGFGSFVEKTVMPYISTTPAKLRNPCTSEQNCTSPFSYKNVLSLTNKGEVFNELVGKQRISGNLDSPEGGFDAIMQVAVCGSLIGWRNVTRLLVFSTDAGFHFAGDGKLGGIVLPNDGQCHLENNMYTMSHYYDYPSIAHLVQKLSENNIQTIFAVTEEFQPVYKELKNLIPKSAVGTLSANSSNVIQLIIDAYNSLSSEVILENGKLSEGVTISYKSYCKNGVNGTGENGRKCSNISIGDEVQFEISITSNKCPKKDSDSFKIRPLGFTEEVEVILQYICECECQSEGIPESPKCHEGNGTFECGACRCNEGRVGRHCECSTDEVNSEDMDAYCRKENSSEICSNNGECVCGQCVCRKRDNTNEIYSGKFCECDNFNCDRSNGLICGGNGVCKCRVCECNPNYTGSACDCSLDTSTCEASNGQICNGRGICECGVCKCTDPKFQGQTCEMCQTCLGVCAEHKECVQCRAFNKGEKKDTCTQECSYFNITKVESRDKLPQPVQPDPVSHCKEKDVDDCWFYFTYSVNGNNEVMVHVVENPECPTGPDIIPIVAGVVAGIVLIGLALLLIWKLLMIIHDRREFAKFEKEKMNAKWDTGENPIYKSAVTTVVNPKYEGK
T4 sequence (P08648 42-894 limits assumed): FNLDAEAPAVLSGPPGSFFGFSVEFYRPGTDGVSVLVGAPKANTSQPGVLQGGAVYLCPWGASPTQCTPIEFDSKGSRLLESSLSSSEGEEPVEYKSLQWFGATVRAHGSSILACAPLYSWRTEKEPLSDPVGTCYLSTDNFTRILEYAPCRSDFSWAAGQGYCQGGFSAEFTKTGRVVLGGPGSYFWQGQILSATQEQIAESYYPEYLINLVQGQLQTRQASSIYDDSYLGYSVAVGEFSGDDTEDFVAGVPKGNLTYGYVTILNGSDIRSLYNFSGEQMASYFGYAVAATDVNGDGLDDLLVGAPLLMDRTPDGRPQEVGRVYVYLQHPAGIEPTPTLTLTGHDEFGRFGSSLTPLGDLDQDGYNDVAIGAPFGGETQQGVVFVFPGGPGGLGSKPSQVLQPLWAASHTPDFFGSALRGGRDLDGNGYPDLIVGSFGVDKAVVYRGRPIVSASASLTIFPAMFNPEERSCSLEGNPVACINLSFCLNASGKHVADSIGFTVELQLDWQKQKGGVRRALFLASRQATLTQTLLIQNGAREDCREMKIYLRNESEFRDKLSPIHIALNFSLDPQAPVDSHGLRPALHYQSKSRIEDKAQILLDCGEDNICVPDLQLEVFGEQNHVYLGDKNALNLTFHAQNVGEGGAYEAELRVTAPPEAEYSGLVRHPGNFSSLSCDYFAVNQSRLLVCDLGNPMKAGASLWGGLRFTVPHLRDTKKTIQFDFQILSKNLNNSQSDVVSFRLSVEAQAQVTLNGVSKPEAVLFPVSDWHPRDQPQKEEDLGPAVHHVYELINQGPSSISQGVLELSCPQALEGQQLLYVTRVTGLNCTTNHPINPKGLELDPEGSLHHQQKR
T4 sequence (P08648 895-1049 partner limits assumed): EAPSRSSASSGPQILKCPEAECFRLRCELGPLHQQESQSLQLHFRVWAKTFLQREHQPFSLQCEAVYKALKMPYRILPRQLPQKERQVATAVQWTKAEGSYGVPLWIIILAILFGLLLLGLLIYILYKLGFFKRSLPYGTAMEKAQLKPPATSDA
T4 sequence (P05556 21-798): as the sequence (P05556 21-798) above

binding to integrin αvβ5 (integrin αvβ5): do not bind
binding to αvβ1 (αvβ1): do not bind
binding to alpha IIb beta 3 (alpha IIb beta 3): do not bind
binding to α5β1 (α5β1): do not bind
B1: Bc-12: patient derived human scFv antibody against activated αvβ3 with RGD motif in CDR-H3; cDNA ATCC PTA-6303 (protein)
scFv: MAQVQLVQSGAEVKKPGASVKVSCKASGYTFSNYGITWVRQAPGQGLEWMGWINNGNTHYAQKFQGRVTMTTDTSTSTAYMELRSLRSDDTAVYYCARDPRGDDEPYWGQGTLVTVSSGGGGSGGGGSGGGGSEIVLTQSPLSLPVTLGQPASISCRSSQNLVYSDGNTYLSWFQQRPGQSPRRLIYKVSNRDSGVPDRFSGSGSGTDFTLKISRVEAEDIGVYYCMQGTHWPPRTFGQGTKVEIKRGLGGLVDYKDDDDK
